Blank lines part the entries; values can stand above or below the molecule they belong to.
Experiments:
[1] = molecular target: T1, trypsin (Sus scrofa, UniProt P00761); assay: Amperometric analysis of trypsin digestion; assay type: biochemical, porcine; settings: amperometric time course trace
T1 construct: purchased Sigma; host or cells: porcine pancreas
Protocol: (§1) Four digestion reactions were carried out with real-time amperometric analysis. […] Tryspin was resuspended in HCl (1 mM, pH 3.0), papain and carboxypeptidase were resuspended in NaCl (100 mM). […] The amperometry conditions were as set out in Tables 2 and 3.
In FIG. 17, there is shown the amperometric time course trace for the trypsin digestion of Fc-BSA. […] As the movement of the species present in the solution reaches a steady state, the current response appears to decay.
(§2) In FIG. 18, there is shown the amperometric time course trace for the papain digestion of FcU-BSA. […] As the movement of the species present in the solution reaches a steady state, the current response appears to decay. […] The amperometric time course trace for the trypsin digestion of FcU-BSA is not illustrated in the drawings but was analogous.

[2] = molecular target: T2, papaya latex papain (Carica papaya, UniProt P00784); assay: Digestion of FcU-BSA with papain, differential pulse voltammetry; assay type: biochemical
T2 construct: purchased Sigma; host or cells: papaya latex
T2 sequence (P00784 134-345): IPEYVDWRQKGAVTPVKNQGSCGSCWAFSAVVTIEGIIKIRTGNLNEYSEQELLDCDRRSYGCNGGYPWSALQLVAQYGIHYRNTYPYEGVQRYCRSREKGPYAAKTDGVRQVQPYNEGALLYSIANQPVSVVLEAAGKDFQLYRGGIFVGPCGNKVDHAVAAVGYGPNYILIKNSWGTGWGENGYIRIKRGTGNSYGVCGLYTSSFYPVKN
Protocol: (§3) Protease assays were performed as follows unless stated otherwise. […] Samples were incubated at 37° C. for 1 hour.
A digestion of FcU-BSA with papain was carried out as described above.

[3] = molecular target: T3, papain (Carica papaya, UniProt P00784); assay: Amperometric analysis of papain digestion; assay type: biochemical; settings: amperometric time course trace, FIG. 18
T3 construct: purchased Sigma; host or cells: papaya latex
T3 sequence (P00784 134-345): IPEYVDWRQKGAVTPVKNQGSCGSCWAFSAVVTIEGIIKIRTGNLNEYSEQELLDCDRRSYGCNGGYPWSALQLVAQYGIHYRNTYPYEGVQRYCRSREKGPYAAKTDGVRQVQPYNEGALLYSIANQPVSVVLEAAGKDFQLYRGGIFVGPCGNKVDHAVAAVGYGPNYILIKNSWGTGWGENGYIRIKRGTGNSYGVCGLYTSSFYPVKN
Protocol: as §1, §2

[4] = molecular target: T4, porcine pancreas trypsin (Sus scrofa, UniProt P00761); assay: Digestion of labelled protein with trypsin, differential pulse voltammetry; assay type: biochemical
T4 construct: purchased Sigma; host or cells: porcine pancreas
Protocol: as §3
A digestion of Fc-BSA with trypsin was carried out as described above. […] The positive reaction has a peak position of 435 mV and a peak height of 4.58×10^−7 A; the no trypsin control reaction has a peak position of 432 mV and a peak height of 2.55×10^−8 A.
A digestion of unlabelled BSA with trypsin was carried out in the same manner as for the labelled molecules as described above. The differential pulse voltammogram results are shown in FIG. 10 in which (a) is the trace for a no-trypsin control reaction and (b) is the trace for trypsin BSA reaction.
A digestion of FcU-BSA with trypsin was carried out as described above. […] The positive reaction has a peak position of 97 mV and a peak height of 5.01×10^−7 A; there was no peak in the no-trypsin control reaction. […]
Five digestions of Fc-BSA with trypsin were carried out using the protocol described above. As described in the general protocol, 2 μl of enzyme was used for each 200 μl reaction; for reaction (i) 10 mg/ml enzyme solution was used; reaction (ii): 1 mg/ml; reaction (iii) 0.1 mg/ml; reaction (iv) 0.01 mg/ml and reaction (v) was a no-trypsin control. The differential pulse voltammogram results are shown in FIG. 14 with baseline correction.
Five digestions of Fc-BSA with trypsin were carried out using the protocol described above. In reaction (i) the incubation at 37° was carried out for 60 minutes, in reaction (ii) for 15 minutes, in reaction (iii) for 5 minutes, in reaction (iv) for 2 minutes and reaction (v) was a 0 minutes no-trypsin control. The differential pulse voltammogram results are shown in FIG. 15 with baseline correction.

[5] = molecular target: porcine pancreas trypsin (1120 BAEE units/mg solid) (porcine) (UniProt P00761); assay: cell-based or functional assay
[6] = molecular target: T5, type I-S soybean trypsin inhibitor, P01070
T5 chain: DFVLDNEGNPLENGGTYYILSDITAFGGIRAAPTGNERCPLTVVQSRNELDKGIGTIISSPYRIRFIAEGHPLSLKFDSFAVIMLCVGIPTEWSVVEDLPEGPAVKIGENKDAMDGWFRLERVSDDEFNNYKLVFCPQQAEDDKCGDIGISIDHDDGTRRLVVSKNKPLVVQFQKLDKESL

[7] = molecular target: T4, porcine pancreas trypsin; assay: Effect of a protease inhibitor on electrochemical marker signal (trypsin digestion of Fc-BSA); assay type: biochemical
Protocol: as §3
Five digestions of Fc-BSA with trypsin were carried out using the protocol described above. In addition, soybean trypsin inhibitor was added to reaction mixtures […]. Solutions of the soybean trypsin inhibitor were prepared by resuspending inhibitor as supplied in deionised water to a concentration of 10 mg/ml and 1 mg/ml as appropriate. No inhibitor was added to reaction (i); 0.5 μl of 1 mg/ml inhibitor solution was added to reaction (ii); […] of 10 mg/ml inhibitor was added to reaction (iii); 5 μl of 10 mg/ml inhibitor solution was added to reaction (iv) and 5 μl of 10 mg/ml inhibitor solution was added to a no-trypsin control reaction. The differential pulse voltammogram results are shown in FIG. 16 with baseline correction.

[8] = positive reaction, 37° C. for 1 hour
[9] = positive reaction, 2 μl enzyme (10 mgml^−1), 37° C. for 1 hour
[10] = no-trypsin control reaction with 5 μl of 10 mg/ml inhibitor solution
[11] = reaction (ii): 0.5 μl of 1 mg/ml inhibitor solution
[12] = reaction (iii): 0.51 of 10 mg/ml inhibitor
[13] = reaction (iv): 5 μl of 10 mg/ml inhibitor solution

Molecule: FcU-BSA: Bovine serum albumin labelled with 4-(3′-ferrocenylureido)-1-benzoyl groups
- faradaic current response over time after addition of the enzyme [1]: analogous
- peak ([2]; no-papain control reaction): no peak was found
- peak height [2, 8]: 2.62×10^−7 A
- peak position [2, 8]: 93 mV
- faradaic current response over time after addition of the enzyme [3]: increase in current
- peak height ([4]; no-trypsin control reaction): no peak
- peak height [4, 9]: 5.01×10^−7 A
- peak position [4, 9]: 97 mV

B1: porcine pancreas trypsin (1120 BAEE units/mg solid) (protein)
chain: IVGGYTCAANSIPYQVSLNSGSHFCGGSLINSQWVVSAAHCYKSRIQVRLGEHNIDVLEGNEQFINAAKIITHPNFNGNTLDNDIMLIKLSSPATLNSRVATVSLPRSCAAAGTECLISGWGNTKSSGSSYPSLLQCLKAPVLSDSSCKSSYPGQITGNMICVGFLEGGKDSCQGDSGGPVVCNGQLQGIVSWGYGCAQKNKPGVYTKVCNYVNWIQQTIAAN
- magnitude of signal in the differential pulse voltammogram of trypsin digestion of Fc-BSA [6]: the magnitude of signal in the differential pulse voltammogram is strongly dependent on the concentration of inhibitor present in the digestion experiment

Next, values leading:

- peak height, differential pulse voltammogram of trypsin digestion of Fc-BSA; reaction (ii), 0.5 ul of 1 mg/ml inhibitor solution in the 200 ul reaction (no-inhibitor reaction (i): 2.56x10^-7 A) [5]: 2.12e-07 A
Molecule: type I-S soybean trypsin inhibitor (from UniProt P01070 25-205)

- peaks in differential pulse voltammogram ([4]; unlabelled substrate, trypsin reaction and no-trypsin control): No peaks were found
Molecule: unlabelled BSA: Bovine serum albumin (lyophilised powder, approx. 99%) from Sigma, unlabelled control substrate [reference compound]

- peak height [7, 10]: 2.75×10^−8 A
- peak position [7, 10]: 429 mV
- peak height [7, 11]: 2.12×10^−7 A
- peak position [7, 11]: 435 mV
- peak height [7, 12]: 1.60×10^−7 A
- peak position [7, 12]: 430 mV
- peak height [7, 13]: 5.33×10^−8 A
- peak position [7, 13]: 426 mV
B2: soybean trypsin inhibitor: type I-S soybean trypsin inhibitor obtained from Sigma (protein)
chain: DFVLDNEGNPLENGGTYYILSDITAFGGIRAAPTGNERCPLTVVQSRNELDKGIGTIISSPYRIRFIAEGHPLSLKFDSFAVIMLCVGIPTEWSVVEDLPEGPAVKIGENKDAMDGWFRLERVSDDEFNNYKLVFCPQQAEDDKCGDIGISIDHDDGTRRLVVSKNKPLVVQFQKLDKESL
